# Measurements taken from the supplement of paper PMC10567573.
# ± gives the standard deviation.
# Experiment: protein stability index of a GFP-peptide fusion (GPS, HEK-293T) (PSI 1-6); higher = more stable
# [1] = treatment: DMSO, c terminus: a fixed tail appended
# [2] = treatment: MLN4924 1 uM, 8 h, c terminus: a fixed tail appended
# 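Further: 24-mer peptide tiles fused after GFP, lentivirally expressed, FACS-sorted into six equal bins by GFP/DsRed ratio, decoded by Illumina sequencing, PSI is the read-weighted mean bin number.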
Sequence,protein stability index [1],protein stability index [2],"protein stability index (treatment: DMSO, c terminus: native)","protein stability index (treatment: MLN4924 1 uM, 8 h, c terminus: native)"
AAAFSQCEEWSFFHAYYYCFITLT [KCNK9],3.33 ± 0.51,3.23 ± 0.49,–,–
AAANGGHVKIVKLLLAHKADVNAQ [ANKRD17],2.51 ± 0.31,2.68 ± 0.18,–,–
AACIAYIRLTQYIDGQGRPRTSQS [CAMK2B],2.24 ± 0.54,2.48 ± 0.23,–,–
AAGQRSRPSTYYELLGVHPGASTE [DNAJC4],3.58 ± 0.32,3.71 ± 0.23,–,–
AALGSRGSCSTEVEKETQEKMTIL [ATP6V1G1],2.52 ± 0.47,2.52 ± 0.55,–,–
AALKQAIKDKEAPLHVAQTRLYLR [TEKT4],3.06 ± 0.15,3.07 ± 0.18,–,–
ACCGGFLEVADFLIKAGADIELGC [ANKRD17],–,3.05 ± 1.1,–,–
ACGLGGGYGGGFSSSSSFGSGFGG [KRT16],2.17 ± 0.27,2.29 ± 0.25,–,–
ADAVNLTIPASLDLSPLLGFWQLP [PLAGL1],2.28 ± 0.27,2.28 ± 0.23,–,–
ADGIEVSYNACGVLSHIMFDGPEA [ZER1],2.93 ± 0.28,2.94 ± 0.27,–,–
ADSGNFKRCINLWKYALDMQQSNL [FEM1C],2.15 ± 0.37,2.21 ± 0.37,–,–
AEDFSTMDEISEKLKKGICEALED [MATN2],5.22 ± 0.32,5 ± 0.33,–,–
AEFQLVRDVVLCSLLNFLPEGVNK [TENT5C],2.37 ± 0.7,3.07 ± 0.85,–,–
AEGIGSTVFRAILDYYKTGIIRCP [BTBD10],2.12 ± 0.42,1.99 ± 0.2,–,–
AETAGAIMAFFLCLGLALGAVFSF [SLC29A1],3.35 ± 0.66,3.03 ± 0.24,–,–
AFHRKSHSLDLNISEKLTLLPTLY [RNF180],2.34 ± 0.39,2.1 ± 0.34,–,–
AGINTHSNEFKESALTLACYKGHL [ANKRD17],2.76 ± 0.19,2.86 ± 0.47,–,–
AGISRSPTICMAYLMKTKQFRLKE [DUSP5],2.21 ± 0.3,2.13 ± 0.24,–,–
AGSSHTPSSQSSSGGGRDSSSSIL [ELOA2],4.82 ± 0.26,4.78 ± 0.14,–,–
AIFIMSLNKRHSSGDGNSKLKSE [MFSD9],–,–,2.64 ± 0.27,2.22 ± 0.15
AIHSSDEDEDEDDEEDFEDDDEWE [WASL],4.48 ± 0.26,4.49 ± 0.27,–,–
ALCMLAQSSPSFAEKCLDFLVDMF [INTS4],1.86 ± 0.1,2.35 ± 0.064,–,–

Sequence,protein stability index [1],protein stability index [2],"protein stability index (treatment: DMSO, c terminus: native)","protein stability index (treatment: MLN4924 1 uM, 8 h, c terminus: native)"
ALGAMWKLHKSQLSQALNGLSDRA [TRIM9],2.21 ± 0.29,2.34 ± 0.35,–,–
ALMHVMQKRSRAIHSSDEGEDQAG [WAS],4.25 ± 0.27,4.49 ± 0.13,–,–
ALREVYAHAVLGQHSHVVRYFSAW [WEE1],2.36 ± 0.34,2.03 ± 0.3,–,–
ALVYSITAQSTFNDLQDLREQILR [RAP1B],2.27 ± 0.33,2.42 ± 0.4,–,–
AMALTSSMNWGINLLISLTFLTVT [SLC2A12],3.14 ± 0.36,3.32 ± 0.33,–,–
APRFSFNDPSGSEEADFLSAETGS [IRX6],5.36 ± 0.14,5.33 ± 0.24,–,–
APSLRRHVLIHNTLQQLQAALRLA [SERTAD3],2.21 ± 0.33,2.29 ± 0.13,–,–
AQALGYYYVLEPRVVDGTPCSPDS [ADAMTS4],2.74 ± 0.52,2.7 ± 0.38,–,–
AQDLTEAEGWHFFCFQGEATRKLA [SAT2],2.94 ± 0.36,3.32 ± 0.46,–,–
AQILPSRVQGGCYRFDSSSCSSED [DRICH1],4.05 ± 0.26,3.92 ± 0.35,–,–
AQKISKGADPKSVVCAFFKQGQCT [ZC3H15],3.32 ± 0.34,3.31 ± 0.26,–,–
AQVLLAMHANVEDRGIKGDITPLM [ANKRD17],2.99 ± 0.093,3.04 ± 0.13,–,–
ARGEDRAGPQSPSPGAPPAAKPAR [TSPAN10],5.1 ± 0.56,5.65 ± 0.097,–,–
ARGLDDAAARGGQCPGLGPAPTPT [ZBED3],4.65 ± 0.14,4.7 ± 0.25,–,–
ARIQTLEPDNWMKEVMLFGHGTRK [RSAD1],3 ± 0.5,3.33 ± 0.35,–,–
ARKQDMNTKRAIHTLAVMNDRLYA [KLHL14],2.55 ± 0.24,2.93 ± 0.36,–,–
ARPSETFARFCKSQESALGNTVPA [DNAAF3],3.12 ± 0.26,2.94 ± 0.26,–,–
ARWRRLRLQQLRRLRGLLRVLRGR [FBXO33],3.52 ± 0.39,3.95 ± 0.65,–,–
ASGSTQRQPPPPAPQHPQPGSQAL [FBXO28],5.14 ± 0.27,5.12 ± 0.089,–,–
ASNWSTTGFGQGQGYTINVPWNQV [HDAC6],2.14 ± 0.47,2.22 ± 0.43,–,–
ASSQHSEGSRSSGSNRSGSDRRKE [DVL3],5.37 ± 0.16,5.52 ± 0.16,–,–
ASWMYQLQHGDQLSICFTCFKAAF [TEX19],2.59 ± 0.42,2.51 ± 0.53,–,–

Sequence,protein stability index [1],protein stability index [2],"protein stability index (treatment: DMSO, c terminus: native)","protein stability index (treatment: MLN4924 1 uM, 8 h, c terminus: native)"
ATDGARPQALPEPMQESKAEGNNQ [CHGA],5.67 ± 0.18,5.76 ± 0.11,–,–
ATLFFNPQESAILQLFHQDGTFSP [CLCN6],2.25 ± 0.42,2.29 ± 0.074,–,–
ATSATSHTRSLNSIIHQMEKFSSS [FBF1],3.34 ± 0.28,3.59 ± 0.39,–,–
ATSGPPGIQPGQEPPVTMIFMGYQ [PALM],2.47 ± 0.24,2.38 ± 0.14,–,–
AVLGGFLYAVGGQDGVSCLNIVER [KLHL20],2.16 ± 0.45,2.55 ± 0.47,–,–
AVLTTHHHWDHARGNPELARLRPG [HAGHL],3.28 ± 0.17,3.4 ± 0.34,–,–
AVNAHQWLDNPERWNKVKMVVSRE [SEPHS2],3.02 ± 0.37,2.67 ± 0.3,–,–
AVVKGIQSSGKVMYFSSLFPYVVL [SLC6A17],3.09 ± 0.49,2.51 ± 0.028,–,–
AWLEGRIRQEFDKLREFLRVEEQA [TRIM35],2.81 ± 0.4,2.94 ± 0.5,–,–
AWTLINLSFAAKQRELHSHVTNAM [DHCR7],3.12 ± 0.34,3.05 ± 0.24,–,–
AYAHPQQKVAVYRALQAALAESGG [TRADD],2.43 ± 0.51,2.65 ± 0.34,–,–
AYDEALAELHAHGPAAFVDYFERN [ZSWIM9],3.73 ± 0.24,3.74 ± 0.34,–,–
CADVPLLTPSSKEMMSQALKATFS [ETS1],2.79 ± 0.2,2.66 ± 0.3,–,–
CAGSTALQEPGEPQGPPASPSCPE [PXN],5.15 ± 0.27,5.48 ± 0.18,–,–
CATDTKNVQFVFDAVTDVIIKNNL [GNAI1],2 ± 0.28,2.43 ± 0.22,–,–
CFLLTAMAYDQFLAICRPLTYSTR [OR3A1],2.89 ± 0.35,2.89 ± 0.69,–,–
CGKSFTQSSGLIRHQRIHTGERPY [ZSCAN9],2.14 ± 0.034,2.25 ± 0.21,–,–
CGRYINGHMLQHHGNSGHPLVLSY [HDAC6],2.51 ± 0.29,2.65 ± 0.77,–,–
CGSFYREPIILPCSHNLCQACARN [TRIM9],2.22 ± 0.25,2.19 ± 0.33,–,–
CGYFQVVNYTQGLWEKVMPSRYAA [SLC19A2],2.7 ± 0.79,2.46 ± 0.41,–,–
CIELYFDEKYSIEPSWECKFDHIE [NETO1],2.13 ± 0.42,2.24 ± 0.25,–,–
